Measured values: patent US20230270636A1, “GOLD AND PALMITOYL PENTAPEPTIDE-4 NANOPARTICLES” (INFINITEC ACTIVOS, S.L., priority 2018, published 2023)
Where a SMILES comes first, the peptide text is derived from it. Where no end group is shown, it is not given here. The star is where a group is joined. Palmitoyl = CCCCCCCCCCCCCCCC(=O)*

Assays:
[1] = Cutaneous penetration using Franz diffusion cells; assay type: in vitro ADME; settings: pig skin, 20 h incubation; for Change in cutaneous penetration upon conjugating the peptide with gold nanoparticles: FIG. 1; for Cutaneous penetration (skin layers reached): 32° C., receptor solution analysed
Protocol: Cutaneous penetration was determined using Franz cells. The pig skin samples used in the experiments were cut into circles 3 cm in diameter. The pig skin was mounted on the receptor compartment of a Franz diffusion cell system with the stratum corneum facing up towards the donor compartment. 18 ml of phosphate-buffered saline (PBS) were used as receptor solution. An aliquot of the test samples (nanoparticles of Example 1 (GNP-P1), nanoparticles of Example 2 (GNP-P2), nanoparticles of Example 3 (GNP), formulation of peptide P1 of Example 4, formulation of peptide P2 of Example 5, mixture of nanoparticles and peptide P1 (GNP+P1) of Example 6 was applied on the pig skin. The Franz diffusion cells were mounted on an H+P Labortechnik Varimag Telesystem (Munich, Germany) and placed in a thermostatic bath (Haake).
Untreated skin control was also included. The Franz diffusion cells were kept at 32° C., and after 20 h of incubation, the receptor solution was analyzed by means of UV-visible absorption spectroscopy using a Shimadzu spectrophotometer UV-1800 (Parc Cientific of Barcelona) and quartz cuvettes (Hellma Analytics) to quantify the amount of gold nanoparticles present (GNP, GNP-P1, and GNP-P2). The amount of free peptide (P1, P2) was determined by means of HPLC, using a Waters 996 photodiode array detector instrument equipped with a Waters 2695 separation module and Millenium software. An Xbridge BEH130 C18 4.6×100 mm 3.5 μm reverse phase HPLC column by Waters was used. In both cases, UV detection was performed at 220 nm. Peptide P1 was analyzed with a mobile phase B gradient of 5 to 100% for 8 minutes at a flow rate of 1.0 ml/min, the retention time being 6.5 minutes. Peptide P2 was analyzed with a mobile phase B gradient of 0 to 20% for 8 minutes at a flow rate of 1.0 ml/min, the retention time being 1.5 minutes. The eluents used in both cases were: Mobile phase A: 0.045% of TFA/H2O, mobile phase B: 0.036% of TFA/ACN.

[2] = Concentration of peptide incorporated in nanoparticles by HPLC; assay type: physicochemical; settings: UV 220 nm
Protocol: The concentration of the peptide (P1 or P2) incorporated in the nanoparticles (GNP-P1 and/or GNP-P2) was determined by HPLC, using a Waters 996 photodiode array detector instrument equipped with a Waters 2695 separation module and Millenium software. An Xbridge BEH130 C18 4.6×100 mm 3.5 μm reverse phase HPLC column by Waters was used. UV detection was performed at 220 nm, and a mobile phase B gradient of 5 to 100% was performed for 8 minutes at a flow rate of 1.0 ml/min. Under these conditions, the retention time being 6.4 min for both peptides P1 and P2. Mobile phase A: 0.045% of TFA/H2O, mobile phase B: 0.036% of TFA/ACN.

[3] = Zeta potential of nanoparticles (Zetasizer Nano ZS); assay type: physicochemical; settings: 1 mg/mL in water, 25° C.
Protocol: The preparation of the samples for determining the Z potential consists of weighing 1 mg if it is powder and it is suspended in 1 mL of milli-Q H2O. Whereas in the case of liquid samples, a 100 μL aliquot of the sample to which 900 μL of milli-Q H2O are added is collected with an automatic pipette. Then the Z potential measurement is taken using DTS1070 plastic cuvettes and Zetasizer Nano ZS series equipment (Malvern Instruments) of the Instituto de Quimica Avanzada de Cataluña (Advanced Chemistry Institute of Catalonia), CSIC.
(§1) The Z potential of the nanoparticles synthesized was determined using DTS1070 plastic cuvettes and Zetasizer Nano ZS series equipment (Malvern Instruments, of the Instituto de Quimica Avanzada de Cataluña, CSIC). The preparation of the samples consists of 1 mg if it is powder and it is suspended in 1 mL of milli-Q H2O. In the case of liquid samples, a 100 μL aliquot of the sample to which 900 μL of milli-Q H2O are added is collected with an automatic pipette such that there is always a concentration of 1 mg/mL of sample. Then the Z potential measurement is taken at a temperature of 25° C.

[4] = Nanoparticle size by dynamic light scattering (DLS); assay type: physicochemical; settings: 1 mg/mL in water, 25° C.
Protocol: The size of the nanoparticles can be determined by means of conventional methods in the art, particularly by means of dynamic light scattering (DLS). First the samples are prepared to determine particle size. To that end, 1 mg is weighed if it is powder and it is suspended in 1 mL of milli-Q H2O. In the case of liquid samples, a 100 μL aliquot of the sample to which 900 μL of milli-Q H2O are added is collected with an automatic pipette. Then the particle size measurement is taken using quartz cuvettes and Zetasizer Nano ZS series equipment (Malvern Instruments) of the Instituto de Quimica Avanzada de Cataluña (Advanced Chemistry Institute of Catalonia), CSIC.
as §1, with “The size” for “The Z potential”, “nanoparticles (GNP, GNP-P1, and GNP-P2)” for “nanoparticles synthesized”, “determined by dynamic light scattering (DLS) for which quartz” for “determined using DTS1070 plastic”, “Instruments,” for “Instruments, of the”, “de Cataluña) were used.” for “de Cataluña, CSIC).”, “the particle size” for “the Z potential”

Row | Molecule | Change in cutaneous penetration upon conjugating the peptide with gold nanoparticles [1] | Maximum concentration of peptide in nanoparticles [2] | Nanoparticle Zeta potential [3] | Nanoparticle diameter [4] | Cutaneous penetration (skin layers reached) [1]
1 | Palm-L-Cys-L-Lys-L-Thr-L-Thr-L-Lys-L-Ser-L-Cys-L-Thr-L-Thr-L-Lys-L-Ser-OH [Example P2] | increase in penetration is not observed | – | – | – | –
2 | GNP − P2: gold nanoparticles conjugated with the peptide of formula (II) (P2; Palm-SEQ ID NO: 2) (Palmitoyl-CKTTKSCTTKS; cysteine pairing not given here; also: conjugated to gold nanoparticles) | – | 0.3 mg/mL | −59 mV | 150-200 nm | –
3 | GNP − P1: gold nanoparticles conjugated with the peptide of formula (I) wherein R is a palmitoyl moiety (Palm-SEQ ID NO: 1) (Palmitoyl-KTTKS; also: conjugated to gold nanoparticles) | considerable increase in penetration | 0.3 mg/mL | −35 mV | 150-200 nm | penetration reached more internal layers such as the epidermis and dermis
4 | CCCCCCCCCCCCCCCC(=O)N[C@@H](CCCCN)C(=O)N[C@H](C(=O)N[C@H](C(=O)N[C@@H](CCCCN)C(=O)N[C@@H](CO)C(=O)O)[C@@H](C)O)[C@@H](C)O [Example P1, Palm-L-Lys-L-Thr-L-Thr-L-Lys-L-Ser-OH] (Palmitoyl-KTTKS-OH) | – | – | – | – | only penetrated the outermost layers external of the skin
